According to the supplement of paper PMC10567573:

B1: ADAMTS4 (parent)
chain: SFRKFRYGYNNVVTIPAGATHILV

Variants of: B1
Assay: protein stability index of a GFP-peptide fusion (GPS, HEK-293T) (PSI 1-6); higher = more stable
Settings: c terminus: a fixed tail appended
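Note: lentivirally expressed fusions sorted by FACS into six bins by GFP to DsRed ratio, PSI derived from sequencing read proportions per bin multiplied by bin number.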

Protein stability index, by site and new letter:
S1: P 2.22 | Q 2.67 | R 2.79 | T 1.61 | V 2.17 | Y 2.22
F2: A 1.94 | C 3.07 | D 2.13 | E 1.79 | G 2.97 | H 1.68 | I 2.03 | K 1.9 | L 1.75 | M 2.96 | N 1.76 | P 2.15 | Q 2.91 | R 2.18 | S 2.19 | T 1.62 | V 1.99 | W 2.38 | Y 1.8
R3: A 2.45 | C 3.97 | D 1.61 | E 2.13 | F 3.06 | G 2.75 | H 1.76 | I 3.31 | K 3.1 | L 3.11 | M 1.83 | N 2.89 | Q 2.14 | S 2.58 | T 1.6 | V 2.99 | W 2.24 | Y 2.37
K4: A 3.08 | C 2.55 | D 1.76 | E 1.51 | F 2.78 | G 2.05 | H 2.56 | L 2.71 | M 2.08 | N 3.74 | P 3.29 | Q 3.78 | R 2.88 | S 2.6 | T 2.68 | V 1.97 | W 3.02 | Y 3.11
F5: A 2.44 | D 2.21 | E 2.51 | G 2.3 | H 1.66 | K 1.77 | L 2.78 | M 3.23 | N 1.84 | P 1.88 | Q 1.92 | R 3.02 | S 1.87 | T 2.98 | V 3.85 | W 2.87 | Y 1.98
R6: A 1.91 | C 4.22 | D 2.22 | F 3.68 | G 2.57 | H 2.76 | I 2.3 | K 3 | L 3.25 | M 3.49 | N 2.5 | P 3.56 | Q 3.44 | S 2.95 | T 2.37 | V 2.5 | W 2.86 | Y 2.15
Y7: A 3.52 | C 2.84 | D 2.07 | E 2.63 | F 3.04 | H 1.77 | I 2.89 | K 2.92 | L 2.46 | M 3.02 | N 2.43 | P 2.83 | Q 2.24 | R 2.8 | S 2.19 | T 3.1 | V 2.81 | W 2
G8: A 2.21 | C 2.46 | D 2.5 | E 2.1 | F 2.48 | H 3.15 | I 4.84 | K 2.4 | L 2.38 | M 2.79 | N 3.3 | P 2.38 | Q 2.77 | R 2.96 | S 3.58 | T 2.71 | V 2.24 | W 3.33 | Y 1.51
Y9: A 3.15 | C 1.55 | D 2.86 | E 1.71 | F 1.72 | G 3.68 | H 2.36 | I 2.46 | K 2.07 | L 2.75 | M 1.9 | N 2.14 | P 1.76 | Q 2.01 | R 2.46 | S 1.78 | T 2.05 | V 1.65 | W 3.46
N10: C 2.65 | D 3.41 | E 1.56 | F 2.9 | G 1.34 | H 1.84 | I 3.13 | K 1.81 | L 4.32 | M 2.49 | P 1.86 | Q 1.94 | R 2.36 | S 1.99 | T 2.18 | V 1.81 | W 1.6 | Y 2.02
N11: A 3.51 | C 2.42 | D 2.92 | E 2.07 | F 1.71 | G 2.89 | H 3.34 | I 2.04 | K 1.61 | L 1.53 | M 2.27 | P 2.59 | Q 1.56 | R 1.57 | S 2.94 | T 2.59 | V 2.57 | W 1.9 | Y 1.19
V12: A 2.25 | C 2.95 | D 3.98 | E 2.4 | F 1.71 | G 3.44 | H 2.33 | I 3.16 | K 2.34 | L 2.58 | M 2.29 | N 1.87 | P 2.13 | Q 1.26 | R 1.7 | S 2.08 | T 3.03 | W 2.09 | Y 2.88
V13: A 3.18 | C 2.92 | D 2.74 | E 2.73 | F 2.6 | G 2.1 | H 1.74 | I 2.07 | K 1.97 | L 3.1 | M 1.9 | N 2.04 | P 2.12 | Q 1.8 | R 3.77 | S 1.82 | T 2.11 | W 3.05 | Y 1.49
T14: A 1.42 | C 1.81 | D 3.24 | E 2.79 | F 2.74 | G 1.33 | H 2.92 | I 2.36 | K 3.9 | L 2.38 | M 3 | N 3.6 | P 1.6 | Q 2.2 | R 1.93 | S 2.65 | V 2.61 | W 3.53 | Y 2.27
I15: A 2.17 | C 2.03 | D 2.35 | E 2.16 | F 1.55 | G 1.4 | H 2.01 | K 2.41 | L 2.3 | M 2.28 | N 1.57 | P 1.52 | Q 1.4 | R 1.44 | S 2.48 | T 2.26 | V 1.5 | W 1.86 | Y 2.11
P16: A 2.65 | C 2.46 | D 3.51 | E 2.83 | F 2.57 | G 2.36 | H 2.4 | I 2.63 | K 2.19 | L 1.81 | M 2.59 | Q 2.25 | R 1.76 | S 2.5 | T 1.36 | V 1.87 | W 2.05 | Y 2.49
A17: C 2.36 | D 1.64 | E 1.61 | F 1.96 | G 1.95 | H 1.78 | I 1.86 | K 1.57 | L 2.31 | M 1.51 | N 1.78 | P 1.98 | Q 1.33 | R 2 | S 1.78 | T 1.97 | V 1.24 | W 2.46 | Y 1.6
G18: A 1.72 | C 1.73 | D 2.71 | E 2.63 | F 2.3 | H 1.71 | I 1.62 | K 2.41 | L 2 | M 1.54 | N 1.27 | P 2.06 | Q 2.88 | R 1.85 | S 2.58 | T 2.71 | V 1.63 | W 1.9 | Y 1.64
A19: C 2.13 | D 3.22 | E 3.97 | F 3.91 | G 1.22 | H 1.96 | K 3 | L 3.23 | N 2.17 | P 2.17 | Q 1.88 | R 2.67 | T 1.36
